# In the supplement of paper PMC10724198:
# ± gives the standard deviation of the averaged measurements.
# Tested on: Saccharomyces cerevisiae
# Assay: protein stability index of tFT-peptide fusion (C-terminal peptide) (PSI (0-1 scale)); higher = more stable (slower turnover)
# Conditions: genetic background: wild type; temperature: 30 C
# 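Further: PSI is a weighted mean of sequencing reads over stability bins, variants kept only with over 10 reads, mCherry proximal and sfGFP distal, peptide attached via GGGS linker.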
row,Sequence,protein stability index
1,VSAPRPPPAPSP,0.786 ± 0.1
2,ASLAPTLPPPPQ,0.677 ± 0.021
3,GGRGWAGRGGSG,0.707 ± 0.052
4,VWVQISGRLNWK,0.709 ± 0.06
5,SFSPSIHLLSTL,0.677 ± 0.045
6,EGLTYIPCQTDC,0.812 ± 0.028
7,PLSPPVSLPLTP,0.672 ± 0.098
8,SLRPPLHSPSPS,0.674 ± 0.016
9,GGGEVLFHLRRA,0.673 ± 0.019
10,GGTVAGLYILGF,0.6301 ± 0.001
11,GAGEGAQEDPAS,0.705 ± 0.013
12,KKKKQNKKKIKK,0.68 ± 0.086
13,PRLSPPSSPGPP,0.631 ± 0.03
14,VALSSECVLSGV,0.656 ± 0.025
15,FKVILGEFPVAW,0.674 ± 0.0086
16,PGSPPPPDTLSP,0.701 ± 0.034
17,AFSRCITVRVVH,0.498 ± 0.032
18,DMAPNSQKGRAL,0.668 ± 0.028
19,YCWGYVVARPSV,0.695 ± 0.017
20,RHDSYKSLHSNL,0.743 ± 0.05
21,ELSCMDGPLLCP,0.683 ± 0.059
22,PPSPPSLRSSPP,0.744 ± 0.13
23,SWECRGMGVCGG,0.721 ± 0.02
24,SLVPCFLSFLYP,0.5752 ± 0.0017
25,PPFPPDTLPLLP,0.746 ± 0.017
26,LGAGLIGCALVE,0.645 ± 0.036

row,Sequence,protein stability index
1,TPLPSLPRPSAP,0.736 ± 0.016
2,NFMTEGYFWRGE,0.767 ± 0.0087
3,VGGGPAALGMWI,0.689 ± 0.077
4,PVPPPPCPPLPP,0.683 ± 0.024
5,NPCPSVLCSNCD,0.67 ± 0.064
6,IKRIYQKKIERK,0.762 ± 0.067
7,HCLLPLTTRRGR,0.7 ± 0.026
8,YGCPSSSSVLDG,0.812 ± 0.11
9,ELFHVGQLNSHE,0.738 ± 0.12
10,SRYVSGGRKRKV,0.636 ± 0.045
11,GLCCFWSYRASR,0.687 ± 0.035
12,LPSTHVPPEPLG,0.679 ± 0.077
13,GHLCVPWFGLVL,0.659 ± 0.11
14,FCLGPSLSSSSL,0.714 ± 0.027
15,TGTPGAVRRGGA,0.727 ± 0.1
16,SLAVATAVLLYP,0.666 ± 0.035
17,DRNKINYYKGGI,0.694 ± 0.031
18,SCNLYVGQVKSG,0.649 ± 0.036
19,LGNMRTVEGWGG,0.684 ± 0.051
20,SAPPLPLSPPPS,0.739 ± 0.076
21,CIATINKMTRRI,0.67 ± 0.11
22,RKRPTQAMIFNI,0.5568 ± 0.0013
23,TFHTSSSPAHLP,0.663 ± 0.038
24,RVWNRHWMGASS,0.776 ± 0.084
25,GACCRHERIREE,0.761 ± 0.084
26,LGSCPPPPAPPP,0.638 ± 0.037

row,Sequence,protein stability index
1,FGTKHFGGWGGV,0.745 ± 0.015
2,LVSGASHWPSYT,0.694 ± 0.014
3,PFFLAFPPSPPT,0.723 ± 0.029
4,CGVFAGRVGVRV,0.6003 ± 0.0017
5,SAPAFPPRPPPT,0.675 ± 0.025
6,PPPTPSDPQNSS,0.644 ± 0.007
7,ALAQQSPLPTRP,0.703 ± 0.011
8,RKVKGKKRYTEG,0.662 ± 0.058
9,PPPGPLFPSFPL,0.663 ± 0.051
10,VGQGVPEGGGQW,0.726 ± 0.018
11,CSDRCHNLLLDA,0.705 ± 0.059
12,YASKQNPKPPSP,0.682 ± 0.039
13,RGRTLVVPAPDT,0.673 ± 0.017
14,SRASATYLFNLH,0.622 ± 0.012
15,MKRQQENNAPGR,0.616 ± 0.018
16,RTTSFVLSYRRE,0.66 ± 0.019
17,GVPALLVGIDLV,0.668 ± 0.027
18,LPPPPPILHLPS,0.6463 ± 0.005
19,DKGWRTRKVKDE,0.632 ± 0.03
20,LGRPWRECIQIG,0.66 ± 0.015
21,PSSPPLPLPALP,0.723 ± 0.04
22,TRIEPTQGVDSP,0.664 ± 0.01
23,LVSPLARLGLMI,0.787 ± 0.05
24,PNPTPYRRPCPP,0.6846 ± 0.0041
25,TSTTGLHVSAMS,0.727 ± 0.021
26,FGARKVELRWMV,0.53 ± 0.0092

row,Sequence,protein stability index
1,GGKARKRKDKRA,0.645 ± 0.1
2,PPPLPPGPALPL,0.732 ± 0.012
3,HDMTGARKTHIA,0.676 ± 0.023
4,KEEAQKMKKIGE,0.752 ± 0.096
5,HSTPPSPAPPTA,0.675 ± 0.062
6,NRGGRKAINENG,0.685 ± 0.036
7,SFGGGLIGAGVT,0.698 ± 0.082
8,FFLRNRPPLCGQ,0.665 ± 0.012
9,PFGRETCLTSVP,0.648 ± 0.03
10,HTRIGDGSRLLA,0.72666 ± 0.00065
11,RGWGVLCGGGWG,0.556 ± 0.053
12,CVPLGCDWRGLI,0.6418 ± 0.0058
13,GLSYPPLQFYYH,0.689 ± 0.012
14,DRPYTEILEFRL,0.834 ± 0.14
15,LSGPLILHLTSL,0.693 ± 0.057
16,TERPMAVESRAW,0.686 ± 0.012
17,VGGWGWLPLPWC,0.678 ± 0.13
18,INWNVMDRVTCN,0.633 ± 0.12
19,ADPWSFKIVKEL,0.542 ± 0.028
20,RSPPPVPELTRL,0.7042 ± 0.0051
21,LGTLLWGGAGRG,0.713 ± 0.01
22,VYSVDGGKTVLD,0.669 ± 0.028
23,GSTLGGMAWGAR,0.682 ± 0.014
